Assays:
[1] = test system: hematopoietic stem cells in the blood; test: Mobilization of hematopoietic stem cells by SP alone (HSC-CFU colony count of blood cells); assay type: in vivo; conditions: rabbits; for level of hematopoietic stem cells in blood on the basis of 1X on day 0: intravenous (ear vein) twice, SP 6.7 µg/kg, G-CSF 10 µg/kg
Protocol: In order to confirm the effect of the drug administered in a normal physiological state alone, the effect of SP was tested using a normal group without wounds. This is because, in the case of injured animals, there are many other factors secreted by the wounds, and, thus, it is difficult to differentiate such factors from the effect of the administered drug, and especially because both SP and G-CSF are endogenous substances in the body.
To confirm the effect of SP alone on mobilization of hematopoietic stem cell, five (5) rabbits were prepared for each group. SP (6.7 µg/kg, sigma Aldrich) was administered twice via Ear vein, and the levels of hematopoietic stem cells in the blood of the same animals for 3 days were compared.
After injection of the drug, 5 ml of blood was collected once a day, put into a 15 ml tube (Falcon), and diluted twice by adding PBS (Welgene). To isolate blood cells, each of 5 ml Ficoll-Paque (Amersham) was placed in a new tube, and diluted blood was placed on top of it. The tubes were carefully handled so as not to mix the Ficoll layer and blood layer, and, after the blood layers were completely put in the tubes, centrifugation (813 g, Megafuge 8R, Thermo Scientific) was performed for 20 minutes. After centrifugation, the layers were separated, resulting in a total of four layers. The uppermost layer was plasma, the second layer was the blood cell layer excluding erythrocytes, the third layer was Ficoll, and the bottom layer was the erythrocyte layer. Among them, only the blood cell layer was separated and put into a tube, and PBS was then added thereto to centrifuge same. 5×10^6 blood cells were placed in a 35 mm plate and cultured in HSC-CFU media (Hematopoietic stem cells-colony forming unit media, purchased from Miltenyi). While the cells were cultured in the initial state for 2 weeks without exchanging the media, the number of colonies was observed every day and finally counted.

[2] = test system: immune cells in the blood; test: Effect of SP on blood immune cells (CBC count, percentages in total leukocytes); conditions: rabbits, G-CSF 10 µg/kg intravenous twice; day 2
Protocol: To confirm the effect of SP on the percentage of immune cells in blood, five (5) rabbits were prepared for each group. After administering SP (6.7 µg/kg) via ear vein twice, the percentages of immune cells in the blood of the same animals were compared for 3 days. G-CSF (10 µg/kg, JW Pham) was used at a conventional clinical dose and treated with the same regimen as that of SP (i.e., intravenous administration). After the administration, 1 ml of the blood was collected at one-day intervals, transferred to a tube containing EDTA and analyzed by using a diagnostic device.

B1: G-CSF: recombinant granulocyte colony stimulating factor, a glycoprotein stimulating neutrophil progenitor cells and mature neutrophils (protein, UniProt P09919 31-207, looked up)
Granulocyte …: TPLGPASSLPQSFLLKCLEQVRKIQGDGAALQEKLVSECATYKLCHPEELVLLGHSLGIPWAPLSSCPSQALQLAGCLSQLHSGLFLYQGLLQALEGISPELGPTLDTLQLDVADFATTIWQQMEELGMAPALQPTQGAMPAFASAFQRRAGGVLVASHLQSFLEVSYRVLRHLAQP
- level of hematopoietic stem cells in blood on the basis of 1X on day 0 ([1]; day 1): 2 X
- level of hematopoietic stem cells in blood on the basis of 1X on day 0 ([1]; day 2): 2.5 X
- level of hematopoietic stem cells in blood on the basis of 1X on day 0 ([1]; day 3): 0.6 X
- effect on mobilization of hematopoietic stem cells (in words) ([1]; intravenous twice, followed for 3 days, FIG. 1): negligible effect on mobilization of hematopoietic stem cells
- increase of the percentage of neutrophils in the blood [2]: about 65%

From US20230248799A1, “COMBINATION THERAPY OF SUBSTANCE-P FOR MOBILIZATION OF HEMATOPOIETIC STEM CELLS” (ELPHIS CELL THERAPEUTICS, priority 2020, published 2023)
